Test results from patent US20260201030A1, “ANTIBODY, ANTIBODY-DRUG CONJUGATE THEREOF AND USE THEREOF” (EVOPOINT BIOSCIENCES CO., LTD., priority 2021, published 2026).
Positions count from the first letter of the chain named.

B1: 32F7A6: anti-human Claudin18.2 murine monoclonal antibody, VH SEQ ID NO: 52, VL SEQ ID NO: 53 (antibody, V domains shown)
VH: QIQLVQSGPELRKPGETVKISCKASGYTFTAYTMGWVKQAPGKGLEWMAWINTYSGVPTYAADFKGRFAFSLETSASTAYLLINNLKNEDTATYFCARGVRGNSMDYWGQGTSVTVSS
VL: DIVETQSPSSLTVTVGERVTLSCKSSQSLLNSGNQRNYLTWSQQKPGQPPKLLIYWASTRESGVPNRFTGGGSGTYFTLTISSVQVEDLAVYYCQNTYSFPFTFGTGTKLEIK
B2: 1A6G10: anti-human Claudin18.2 murine monoclonal antibody, VH SEQ ID NO: 46, VL SEQ ID NO: 47 (antibody, V domains shown)
VH: QVQLKESGGGLVKPGGSLKLSCAASGFTFSSYAMSWVRQTPEKRLEWVAAIHSNGGSTYNSDTMRDRFTISRDHAKNTLYLQMSSLRSEDTALYYCGRQSFGNALDYWGQGTSVTVSS
VL: DIQMTQSPSSLTVTAGEKVTLTCKSSQSLLNSGNQKNYLTWYQQKPGQPPKLLIYWASTRESGVPDRFTGSGSGTFFTLTISSVQAEDLAVYFCQNDYVYPFTFGAGTQLELK
B3: 2D3A11: anti-human Claudin18.2 murine monoclonal antibody, VH SEQ ID NO: 23, VL SEQ ID NO: 24 (antibody, V domains shown)
VH: EVQLQQSGPELVKPGASVRMSCKASGYTFTSYVVHWVKQKPGQGLEWIGYINPYNADSKYNERFKGKATLTSDKSSNSAYMELSSLTSEDSAVYYCSRSYYGNSFDVWGAGTTVTVSS
VL: DIVMTQSPSSLTVTTGEKVTMSCKSSQSLLNSGNQKNYLTWYQQKPGQSPKLLFFWASTRQSGVPDRFTGSGSGTYFTLTISSVQAEDLAVYYCQNDYYFPFTFGTGTKLEIK
B4: 2D3A11-HZ2: humanized anti-Claudin18.2 antibody, VH SEQ ID NO: 40, VL SEQ ID NO: 39 (antibody, V domains shown)
VH: QVQLVESGAEVKKPGASVKVSCKASGYTFTSYVVHWVRQAPGQGLEWMGYINPYNADSKYSQEFQGRATLTSDKSASTAYMELSSLRSEDMAVYYCSRSYYGNSFDVWGQGTLVTVSS
VL: DIVMTQSPDSLAVSLGERATINCKSSQSLLNSGNQKNYLTWYQQKPGQSPKLLFFWASTRQSGVPDRFSGSGSGTDFTLTISSLQAEDVAVYYCQNDYYFPFTFGQGTKVEIK
B5: 8H11A10: anti-human Claudin18.2 murine monoclonal antibody, VH SEQ ID NO: 44, VL SEQ ID NO: 45 (antibody, V domains shown)
VH: QVQLKESGPVLVAPSQSLSITCTVSGFSLTNYGVHWVRQPPGKGLEWLGVIWSGGRTNYNSALMSRLSISKDNSKSQVFLKMNSLQTDDTAMYYCAKRDGIYGDYWGQGTSVTVSS
VL: DIVETQSPSSLTVTAGEKVTMSCKSSQSLLNSGNQKNYLTWYQQKPGQSPKLLIYWASTRESGVPDRFTGSGFGTDFTLTISSVQAEDLAVYYCQNDYIYPLTFGAGTKLELK
B6: 23F2F2: anti-human Claudin18.2 murine monoclonal antibody, VH SEQ ID NO: 48, VL SEQ ID NO: 49 (antibody, V domains shown)
VH: QVQLKESGGGLVQPGGSMKLSCAASGFTFSDAWMNWVRQSPEKGLEWVAEIRNKADYHATHYVESVTGRFTISRDDSKSSVYLQMNRLRAEDTGIYYCTRNYGSRFDYWGQGTTLTVSS
VL: B5 VL with K36R, Q48H, S49P, F73S, I81V, S82T, I99F, T103A, A106T
B7: 40G11H2: anti-human Claudin18.2 murine monoclonal antibody, VH SEQ ID NO: 50, VL SEQ ID NO: 51 (antibody, V domains shown)
VH: EVQLQQSGAELARPGASVKLSCKASGYTFTSYGIRWVKQRTGQGLEWIGEIYPRGGNTYYDEKFKGKATLTADKSSSTAYMGLRSLTSEDSAVYFCARADYGNSFAYWGQGTLVTVSA
VL: DIVMTQSPSSLTVTAREKVTMSCKSSQSLLNSGNQKNYLTWYHQKPGQPPKLLIYWASTRESGVPDRFTGSGSGTDFTLTISSVQAEDLAVYFCQNAYFYPFTFGTGTKLEIK
B8: 25C7A5: anti-human Claudin18.2 murine monoclonal antibody, VH SEQ ID NO: 21, VL SEQ ID NO: 22 (antibody, V domains shown)
VH: EVQLQQPGAELVKPGTSVKLSCKASGYTFTNYWLHWVRQRPGQGLEWIGMMHPISGSSNNNERFKSKATLTVDKSSTTAYMQLSRMTSEDSAVYYCARGLLSAMDYWGQGTSVTVSS
VL: CIVLTQSPKSMSMSVGERVTLSCKASENVKTYVSWYQQRPEQSPKLLIYEASNRYTGVPDRFTGSGSATVFTLTISSVQTEDLANYFCGQTYSFPPTFGSGTKLEIK

Columns and labels:
Type in all cases: binding
human Claudin18.2 [1] = molecular target: T1, human Claudin18.2 (Homo sapiens, UniProt P56856); assay: Cell-based ELISA affinity of murine antibodies on HEK293T-Claudin18.2 (human) cells
T1 construct: expressed in transfected cells
Protocol: (§1) The affinity of the anti-human Claudin18.2 murine monoclonal antibodies was evaluated by cell-based ELISA. The experimental procedures were as follows: The day before the experiment, HEK293T-Claudin18.2 (human) cells were plated in a 96-well plate at 5×10^4 cells/well. On the day of the experiment, the supernatant was removed, the cells in each well were washed once with 300 μL of PBS, and 100 μL of 4% paraformaldehyde was added to each well for fixation at room temperature for 20 min. Paraformaldehyde was then removed, and the cells in each well were washed twice with 300 μL of PBS. 100 μL of 2% BSA (in PBS) was added to each well, and the mixture was blocked at 37° C. for 2 h. After removing the blocking solution, each antibody subjected to gradient dilution (diluted with 2% BSA (in PBS), starting at […], in a 3-fold gradient, for a total of 11 concentration points) was added to the plate at 100 μL/well, and the mixture was incubated at 37° C. for 2 h. The supernatant was removed, and the cells in each well were washed three times with 300 μL of PBST. 100 μL of an anti-mouse IgG HRP secondary antibody (Jackson, cat #115-035-003) in 2% BSA was added to each well, and the mixture was incubated at 37° C. for 1 h. The secondary antibody was then removed, and the cells in each well were washed five times with 300 μL of PBST, followed by the addition of 100 μL of a TMB substrate (Huzhou InnoReagents Co., Ltd.) per well for color development for 5-20 min. The reaction was stopped by adding 50 μL of 2 N HCl to each well, and OD450 nm values were read on a microplate reader (manufacturer: MD, model: SpectraMax). The values obtained were plotted by GraphPad Prism to calculate the EC50 value.

human Claudin18.2 [2] = molecular target: T1, human Claudin18.2; assay: Cell-based ELISA affinity of humanized antibodies on HEK293T-Claudin18.2 (human) cells; conditions: HEK293T-Claudin18.2 cells
Protocol: as §1
The affinity of the anti-human Claudin18.2 humanized monoclonal antibodies was determined by cell-based ELISA. The cell-based ELISA was conducted as described in Example I-3.

human Claudin18.2 [3] = molecular target: T1, human Claudin18.2; assay: Cell-based ELISA affinity of humanized antibodies on L929-Claudin18.2 (human) cells; conditions: L929-Claudin18.2 cells
human Claudin18.1 = molecular target: T2, human Claudin18.1 (Homo sapiens, UniProt P56856); assay: FACS specificity of humanized antibodies on HEK293T-Claudin18.1 (human) cells; conditions: antibody 50 μg/mL, APC secondary antibody
T2 construct: expressed in transfected cells
Protocol: The specificity of the anti-human Claudin18.2 humanized monoclonal antibodies was determined by flow cytometry (FACS). The experimental procedures were as follows: HEK293T-Claudin18.1 (human) cells were digested, collected by centrifugation, washed three times with pre-cooled PBS, resuspended in 1% BSA (in PBS), and added to a 96-well pointed bottom plate at 3×10^5 cells/well. Each test antibody with a final concentration of 50 μg/mL was added, and the mixture was incubated at 4° C. for 1 h. The cells were washed three times with pre-cooled PBS, and then 1 μL of a fluorescent secondary antibody (APC: Biolegend-410712 or PE: BioLegend-410708) was added to each well. The mixture was incubated at 4° C. for 0.5 h, and the cells were washed three times with pre-cooled PBS, then resuspended, and assayed on a flow cytometer. For reference, anti-human Claudin18.1 positive control antibodies (positive control antibody-1 and positive control antibody-2) were included in the experiment.

Molecule | Affinity HEK293T-18.2 EC50 (human Claudin18.2 [1]) [ng/mL] | other results
B1 | 2.399 | 
B2 | 5.024 | 
B3 | 8.143 | 
B4 |  | Affinity detected by cell-based ELISA (EC50, ng/mL) HEK293T-Claudin18.2 (human Claudin18.2 [2]): 14.01 ± 2.29(N = 2) ng/mL; Affinity detected by cell-based ELISA (EC50, ng/mL) L929-Claudin18.2 (human Claudin18.2 [3]): 25.62 ng/mL; Mean APC fluorescence signal value (human Claudin18.1): 382; Median APC fluorescence signal value (human Claudin18.1): 329; Positive rate (%) (human Claudin18.1): 1%
B5 | 12.32 | 
B6 | 6.015 | 
B7 | 7.376 | 
B8 | 10.49 | 
